Results as given in PMC8727134.

B1: MT1 (dsDNA)
DNA 1: GAAAAATAACGTATGG
DNA 2: CCATACGTTATTTTTC
B2: WT2 (dsDNA)
DNA 1: AGCTCTGTGGTAGAAT
DNA 2: ATTCTACCACAGAGCT
B3: MT2 (dsDNA)
DNA 1: AGCTCCGTTATAGAAT
DNA 2: ATTCTATAACGGAGCT

Molecular target: RUNX1 Runt domain (His6-RUNX1);CBFbeta (His6-CBFβ) (mouse;mouse, UniProt Q03347;Q08024 24-189;1-187, |)
Assay: EMSA

Sequence of RUNX1 Runt domain (His6-RUNX1);CBFbeta (His6-CBFβ) (Q03347 24-189, chain 1 of 2): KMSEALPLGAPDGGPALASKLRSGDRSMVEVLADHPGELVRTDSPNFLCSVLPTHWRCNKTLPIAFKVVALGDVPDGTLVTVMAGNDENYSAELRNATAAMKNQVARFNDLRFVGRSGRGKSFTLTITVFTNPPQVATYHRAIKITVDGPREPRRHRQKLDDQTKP
Sequence of RUNX1 Runt domain (His6-RUNX1);CBFbeta (His6-CBFβ) (Q08024 whole entry, chain 2 of 2, the tested form may be a part): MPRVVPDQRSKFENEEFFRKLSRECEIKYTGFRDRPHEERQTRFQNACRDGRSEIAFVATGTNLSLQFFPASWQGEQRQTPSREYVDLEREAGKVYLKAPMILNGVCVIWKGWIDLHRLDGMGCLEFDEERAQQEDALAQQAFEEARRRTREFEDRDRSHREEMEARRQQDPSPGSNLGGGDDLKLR

Binding result, no binding:
B1
B2
B3
